For experiment [1], the target named is T1, α11β1 expressed on the surface of CHO-K1 cells (Homo sapiens, UniProt Q9UKX5).
T1 construct: expressed in transfected cells; host or cells: CHO-K1
T1 sequence (Q9UKX5 23-1188): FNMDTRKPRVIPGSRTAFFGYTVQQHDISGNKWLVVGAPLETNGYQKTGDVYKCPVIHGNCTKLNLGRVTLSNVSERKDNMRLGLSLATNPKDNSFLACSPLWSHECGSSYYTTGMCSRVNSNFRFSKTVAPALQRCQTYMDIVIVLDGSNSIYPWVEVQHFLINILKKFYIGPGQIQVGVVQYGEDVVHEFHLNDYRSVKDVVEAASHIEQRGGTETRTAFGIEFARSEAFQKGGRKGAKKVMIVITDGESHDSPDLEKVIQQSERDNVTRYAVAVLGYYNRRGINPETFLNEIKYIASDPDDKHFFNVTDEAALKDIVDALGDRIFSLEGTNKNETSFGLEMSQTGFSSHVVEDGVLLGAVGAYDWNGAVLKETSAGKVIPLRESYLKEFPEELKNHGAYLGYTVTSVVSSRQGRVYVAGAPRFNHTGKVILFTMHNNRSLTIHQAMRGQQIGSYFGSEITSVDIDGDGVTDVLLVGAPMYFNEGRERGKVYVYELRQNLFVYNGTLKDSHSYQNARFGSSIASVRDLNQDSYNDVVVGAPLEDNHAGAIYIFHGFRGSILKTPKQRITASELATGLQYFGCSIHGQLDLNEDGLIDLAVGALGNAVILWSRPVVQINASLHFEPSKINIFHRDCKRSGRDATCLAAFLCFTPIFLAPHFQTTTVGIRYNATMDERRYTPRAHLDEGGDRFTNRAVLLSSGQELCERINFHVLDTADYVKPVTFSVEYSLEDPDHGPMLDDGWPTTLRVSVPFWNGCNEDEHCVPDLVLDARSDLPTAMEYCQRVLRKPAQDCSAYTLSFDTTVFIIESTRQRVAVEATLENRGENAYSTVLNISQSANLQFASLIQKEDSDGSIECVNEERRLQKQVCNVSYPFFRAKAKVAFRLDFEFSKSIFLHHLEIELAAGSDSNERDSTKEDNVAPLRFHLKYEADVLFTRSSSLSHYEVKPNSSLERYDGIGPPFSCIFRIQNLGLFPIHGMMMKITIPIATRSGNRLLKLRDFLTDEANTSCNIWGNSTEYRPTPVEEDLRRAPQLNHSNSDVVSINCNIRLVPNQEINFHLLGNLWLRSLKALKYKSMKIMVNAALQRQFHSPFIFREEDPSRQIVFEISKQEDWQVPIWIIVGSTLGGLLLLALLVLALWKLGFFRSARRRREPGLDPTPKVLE
The experiment can be described thus: FACS antibody binding to CHO-K1 cells expressing human α11. Conditions: binding Yes/No. The procedure, abridged: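 Wild-type or human α11-transfected CHO-K1 cells (endogenous β1) were incubated with antibody at varied concentrations for 30 min at 4° C, then secondary antibody (1:100) 30 min at 4° C. Cells were PFA-fixed and read by flow cytometry; binding EC50 estimated from FACS data.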

Experiment [2] has as its system Human Pulmonary Fibroblasts. The experiment can be described thus: Fibroblast-to-Myofibroblasts Transition (FMT), αSMA expression. It is filed as cell-based. Conditions: Yes/No. The essentials:
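Cells seeded at 20,000/well, serum-starved 24 h, then given TGFβ-1 with or without anti-α11 antibodies for 48 h; polyclonal anti-α11 and isotype IgG served as controls. Fixed, permeabilized cells were stained for αSMA and analysed by flow cytometry (single-cell gMFI). Values are normalized to untreated control as % inhibition.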

B1: 3B1: rabbit anti-α11β1 mAb; heavy chain SEQ ID NO: 201, light chain SEQ ID NO: 202 (antibody)
heavy: METGLRWLLLVAVLKGVQCQEQLEESGGGLVKPEGSLTLTCKASGFDLSSGYDMCWVRQAPGKGLEWIACIYADYSGSTYYASWVNGRFTISSSTSLNTVDLKMTSLTAADTATYFCARGATGNGGYGYYFNLWGPGTLVTVSSGQPKAPSVFPLAPCCGDTPSSTVTLGCLVKGYLPEPVTVTWNSGTLTNGVRTFPSVRQSSGLYSLSSVVSVTSSSQPVTCNVAHPATNTKVDKTVAPSTCSKPMCPPPELPGGPSVFIFPPKPKDTLMISRTPEVTCVVVDVSQDDPEVQFTWYINNEQVRTARPPLREQQFNSTIRVVSTLPIAHQDWLRGKEFKCKVHNKALPAPIEKTISKARGQPLEPKVYTMGPPREELSSRSVSLTCMINGFYPSDISVEWEKNGKAEDNYKTTPTVLDSDGSYFLYSKLSVPTSEWQRGDVFTCSVMHEALHNHYTQKSISRSPGK
light: MDTRAPTQLLGLLLLWLPGARCADIVMTQTPASVSEPVGGTVTIKCQASQNINSGLAWYQQKPGQPPKLLIYKASTLASGVSSRFKGSGSGTEFTLTISDLECADAATYYCQTYYYSSSSSDNAFGGGTEVVVKGDPVAPTVLIFPPAADQVATGTVTIVCVANKYFPDVTVTWEVDGTTQTTGIENSKTPQNSADCTYNLSSTLTLTSTQYNSHKEYTCKVTQGTTSVVQSFNRGDC
Take B1: in experiment [1], the “CHO-K1 FACS” value is listed as “Yes”. Besides, in experiment [2], the “Inhibition of FMT” value is “No”.

B2: 10-L15: mouse anti-α11β1 mAb; VH SEQ ID NO: 119, VL SEQ ID NO: 120 (antibody, V domains shown)
VH: QVQLQQSGPELVRPGASVKMSCKASGYTFTSYWMHWVKQRPGQGLEWIGMIDPSNSETWLNQKFKDKATLNVDKSSNTAYMQLSSLTSEDSAVYYCARYDGYYDYWGQGTTLTVSS
VL: NIVLTQSPASLAVSLGQRATISCRASESVDSYGNSFMHWYQQKPGQPPKLLIYLASNVESGVPARFSGSGSRTDFTLTIDPVEADDAATYYCQQNNEDPWTFGGGTKLEIK
Turning to B2, the “CHO-K1 FACS” value in experiment [1] was “No”. Besides, the “Inhibition of FMT” value in experiment [2] is on record as “No”.

These data come from patent publication US12460006B2, “Antibodies against integrin alpha 11 beta 1” (Momenta Pharmaceuticals, Inc., priority 2019, dated 2025).
